PMC6510727
Several values for one entry are separate records, joined by “and”; a condition that tells them apart may be missing. Equal entries are not always repeated.

What was measured:
[1] = biological target: PDE catalytic subunit (PDEα or PDEβ) of frog rod PDE (frog (Rana catesbeiana)); experiment: PDE activity on dilution (pH assay), fitted with equation (s5); frog ROS membranes at various concentrations of PDE (≤40 nM; PDE/rhodopsin taken as 1/270), in the light without GTP, 5 mM cGMP, room temperature
[2] = biological target: PDE catalytic subunit (PDEα or PDEβ) of frog rod PDE (frog (Rana catesbeiana)); experiment: co-purification (Mono Q, Superdex 200) with SDS-PAGE quantification; native PDE purified from frog ROS membranes to almost 100% purity; subunits quantified on Oriole-stained gels with bovine serum albumin as molar standard
[3] = biological target: PDE catalytic subunit (PDEα or PDEβ) of frog rod PDE (frog (Rana catesbeiana)); experiment: PDE activity on dilution (pH assay), fitted with equation (s5); purified PDE at diluted low concentrations (≤40 nM), in the light without GTP, 5 mM cGMP, room temperature; relative to trypsin-treated full activity

Question: “native PDEγ of frog rod PDE (freed reversibly from the catalytic subunit) (from UniProt H1AAN5 1-87) (natural protein)” was tested. Which Kd [1] did it give?
Answer: The Kd was 0.04 to 0.06 nM and 0.054 nM.

Question: And the molar ratio of 2PDEγ/PDEαβ [2]?
Answer: The molar ratio of 2PDEγ/PDEαβ was 1.01.

Question: What about the Kd [3] of the same substance?
Answer: Its Kd is 0.01 nM and 0.005 to 0.02 nM.
